The results in this text go back to patent publication US20050100554A1 (published 2005).

First the molecules themselves.
B2: Human Papillomavirus 1a L2 (other)
chain: MYRLRRKRAAPKDIYPSCKISNTCPPDIQNKIEHTTIADKILQYGSLGVFLGGLGIGTARGSGGRIGYTPLGEGGGVRVATRPTPVRPTIPVETVGPSEIFPIDVVDPTGPAVIPLQDLGRDFPIPTVQVIAEIHPISDIPNIVASSTNEGESAILDVLRGNATIRTVSRTQYNNPSFTVASTSNISAGEASTSDIVFVSNGSGDRVVGEDIPLVELNLGLETDTSSVVQETAFSSSTPIAERPSFRPSRFYNRRLYEQVQVQDPRFVEQPQSMVTFDNPAFEPELDEVSIIFQRDLDALAQTPVPEFRDVVYLSKPTFSREPGGRLRVSRLGKSSTIRTRLGTAIGARTHFFYDLSSIAPEDSIELLPLGEHSQTTVISSNLGDTAFIQGETAEDDLEVISLETPQLYSEEELLDTNESVGENLQLTITNSEGEVSILDLTQSRVRPPFGTEDTSLHVYYPNSSKGTPIINPEESFTPLVIIALNNSTGDFELHPSLRKRRKRAYV
notes: also called HPV 1a L2; cbe_252041

Test [1] has as its target T1, Human Papillomavirus 1a E1 (Human Papillomavirus 1a, UniProt P03111 1-612).
T1 construct: also called HPV 1a E1; cbe_552975
T1 sequence: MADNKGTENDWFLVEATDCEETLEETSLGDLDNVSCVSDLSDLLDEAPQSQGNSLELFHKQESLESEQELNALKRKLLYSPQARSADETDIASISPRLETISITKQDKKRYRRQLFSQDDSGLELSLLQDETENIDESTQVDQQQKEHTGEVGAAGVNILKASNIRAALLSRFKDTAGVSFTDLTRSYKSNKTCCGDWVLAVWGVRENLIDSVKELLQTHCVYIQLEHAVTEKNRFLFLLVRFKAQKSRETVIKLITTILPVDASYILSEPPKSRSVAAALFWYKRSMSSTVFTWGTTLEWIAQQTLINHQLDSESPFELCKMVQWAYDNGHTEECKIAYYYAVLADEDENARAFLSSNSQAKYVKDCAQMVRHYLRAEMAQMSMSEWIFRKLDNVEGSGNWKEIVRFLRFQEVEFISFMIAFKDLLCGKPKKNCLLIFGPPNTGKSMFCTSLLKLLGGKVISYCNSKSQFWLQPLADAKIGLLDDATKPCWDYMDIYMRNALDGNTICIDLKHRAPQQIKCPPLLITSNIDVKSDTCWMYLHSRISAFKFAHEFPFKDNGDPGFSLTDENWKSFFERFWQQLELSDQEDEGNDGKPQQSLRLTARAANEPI
Description: Y2H; INT ID 582.

Another test deals with T2, EphB1 (human, UniProt P54762 18-984).
T2 construct: also called cbe_3810791
T2 sequence: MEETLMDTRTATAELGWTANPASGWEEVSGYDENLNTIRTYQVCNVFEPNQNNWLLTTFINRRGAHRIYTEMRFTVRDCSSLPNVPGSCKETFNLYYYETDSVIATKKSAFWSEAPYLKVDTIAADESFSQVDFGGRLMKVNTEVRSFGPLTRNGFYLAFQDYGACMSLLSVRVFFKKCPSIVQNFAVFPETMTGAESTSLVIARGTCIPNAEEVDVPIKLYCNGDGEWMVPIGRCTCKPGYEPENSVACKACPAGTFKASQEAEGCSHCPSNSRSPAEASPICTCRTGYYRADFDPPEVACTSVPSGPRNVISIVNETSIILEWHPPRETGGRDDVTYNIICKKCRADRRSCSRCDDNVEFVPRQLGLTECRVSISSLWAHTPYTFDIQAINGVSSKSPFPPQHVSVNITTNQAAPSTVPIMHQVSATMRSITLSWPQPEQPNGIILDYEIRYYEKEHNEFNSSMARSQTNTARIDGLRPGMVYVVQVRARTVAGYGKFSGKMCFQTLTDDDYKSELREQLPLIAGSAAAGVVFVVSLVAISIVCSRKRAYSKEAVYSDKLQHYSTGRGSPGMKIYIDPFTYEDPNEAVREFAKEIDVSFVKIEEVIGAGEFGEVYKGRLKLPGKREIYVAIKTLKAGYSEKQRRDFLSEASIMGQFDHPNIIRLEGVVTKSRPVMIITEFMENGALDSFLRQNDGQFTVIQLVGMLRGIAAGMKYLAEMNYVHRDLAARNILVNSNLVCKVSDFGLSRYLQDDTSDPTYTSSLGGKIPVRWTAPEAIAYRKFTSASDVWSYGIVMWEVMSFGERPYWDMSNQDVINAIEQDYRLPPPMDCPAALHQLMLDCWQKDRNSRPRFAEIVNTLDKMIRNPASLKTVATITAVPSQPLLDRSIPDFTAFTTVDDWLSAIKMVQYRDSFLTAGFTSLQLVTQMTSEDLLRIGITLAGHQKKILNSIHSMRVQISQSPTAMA
As to the kind of experiment: Y2H; INT ID 448.

Another test addresses T3, GSN (human, UniProt P06396 28-782).
T3 construct: also called cbe_4248793
As to the kind of experiment: Y2H; INT ID 449.

For test [2], the target named is T4, pumilio homolog 1 (Drosophila) (human, UniProt Q14671 2-1186).
T4 construct: also called PUM1; cbe_4540466
T4 sequence: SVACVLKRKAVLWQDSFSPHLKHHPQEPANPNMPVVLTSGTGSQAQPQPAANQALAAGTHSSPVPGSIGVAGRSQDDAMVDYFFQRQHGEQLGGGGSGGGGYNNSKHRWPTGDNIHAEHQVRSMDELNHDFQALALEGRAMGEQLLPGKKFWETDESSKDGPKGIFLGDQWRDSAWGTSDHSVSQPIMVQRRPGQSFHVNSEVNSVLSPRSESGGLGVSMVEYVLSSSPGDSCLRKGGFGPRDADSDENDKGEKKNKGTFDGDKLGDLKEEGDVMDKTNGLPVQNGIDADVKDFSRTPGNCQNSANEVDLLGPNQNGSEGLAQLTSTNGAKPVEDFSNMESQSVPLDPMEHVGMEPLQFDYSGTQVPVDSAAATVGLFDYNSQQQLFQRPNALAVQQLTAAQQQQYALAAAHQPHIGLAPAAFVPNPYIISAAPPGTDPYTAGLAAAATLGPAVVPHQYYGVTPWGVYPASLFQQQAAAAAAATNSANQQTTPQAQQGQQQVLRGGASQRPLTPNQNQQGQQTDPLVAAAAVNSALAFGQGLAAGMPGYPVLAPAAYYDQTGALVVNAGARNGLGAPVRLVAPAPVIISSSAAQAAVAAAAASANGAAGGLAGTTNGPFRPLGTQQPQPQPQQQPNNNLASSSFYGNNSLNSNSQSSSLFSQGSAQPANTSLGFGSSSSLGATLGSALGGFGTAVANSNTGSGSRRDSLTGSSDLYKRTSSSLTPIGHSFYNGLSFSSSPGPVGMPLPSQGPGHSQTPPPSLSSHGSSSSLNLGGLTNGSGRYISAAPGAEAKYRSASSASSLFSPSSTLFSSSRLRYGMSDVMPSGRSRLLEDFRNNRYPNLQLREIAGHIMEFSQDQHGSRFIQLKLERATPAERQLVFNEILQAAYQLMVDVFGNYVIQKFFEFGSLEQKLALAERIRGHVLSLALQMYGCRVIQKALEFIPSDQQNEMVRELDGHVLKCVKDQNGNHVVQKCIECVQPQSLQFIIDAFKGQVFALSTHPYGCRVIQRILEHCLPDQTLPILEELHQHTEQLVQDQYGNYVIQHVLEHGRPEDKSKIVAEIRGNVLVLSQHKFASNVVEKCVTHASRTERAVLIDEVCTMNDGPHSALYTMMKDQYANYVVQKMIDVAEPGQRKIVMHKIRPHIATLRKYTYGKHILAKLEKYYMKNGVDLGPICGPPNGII
Description: Y2H; INT ID 452.

The target in test [3] is B2. Description: Y2H; INT ID 451.
Test [4] has as its target T1, Human Papillomavirus 1a E1. Description: Y2H; INT ID 581.
Test [5] deals with T1, Human Papillomavirus 1a E1. As to the kind of experiment: Y2H; INT ID 579.
The target of test [6] is B2. As to the kind of experiment: Y2H; INT ID 446.

T3 sequence (P06396 28-782 limits assumed): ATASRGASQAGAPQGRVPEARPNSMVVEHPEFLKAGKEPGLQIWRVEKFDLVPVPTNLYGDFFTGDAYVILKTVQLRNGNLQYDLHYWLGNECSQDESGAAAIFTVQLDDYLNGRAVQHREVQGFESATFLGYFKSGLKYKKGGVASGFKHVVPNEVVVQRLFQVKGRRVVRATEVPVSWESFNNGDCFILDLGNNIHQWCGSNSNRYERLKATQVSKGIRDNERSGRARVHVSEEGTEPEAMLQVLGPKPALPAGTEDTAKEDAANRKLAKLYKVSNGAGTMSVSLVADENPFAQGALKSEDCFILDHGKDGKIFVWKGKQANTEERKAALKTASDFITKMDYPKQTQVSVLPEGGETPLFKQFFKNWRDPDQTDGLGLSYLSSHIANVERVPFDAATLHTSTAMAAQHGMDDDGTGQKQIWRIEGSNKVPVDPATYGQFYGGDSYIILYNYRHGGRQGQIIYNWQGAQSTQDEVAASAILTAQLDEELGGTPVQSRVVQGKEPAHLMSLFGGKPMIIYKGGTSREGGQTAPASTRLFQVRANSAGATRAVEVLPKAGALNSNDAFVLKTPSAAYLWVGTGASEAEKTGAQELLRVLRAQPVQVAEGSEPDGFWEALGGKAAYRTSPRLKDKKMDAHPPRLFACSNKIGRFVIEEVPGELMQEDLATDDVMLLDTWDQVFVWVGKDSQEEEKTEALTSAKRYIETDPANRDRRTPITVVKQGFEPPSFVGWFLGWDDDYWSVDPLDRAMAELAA

B1: TRAF interacting protein (other)
chain: MPIRALCTICSDFFDHSRDVAAIHCGHTFHLQCLIQSFETAPSRTCPQCRIQVGKRTIINKLFFDLAQEEENVLDREFLKNELDNVRAQLSQKDKEKRDSQVIIDTLRDTLEERNATVVSLQQALGKAEMLCSTLKKQMKYLEQQQDETKQAQEEAGRLRSKMKTMEQIELLLQSQLPEVEEMIRDMGVGQSAVEQLAVYCVSLKKEYENLKEARKASGEVADKLRKDLFSSRSKLQTVYSELDQAKLELKSAQKDLQSADKEIMSLKKKLTMLQETLNLPPVASETVDRLVLESPAPVEVNLKLRRPSFRDDIDLNATFDVDTPPARPSSSQHGYYEKLCLEKSHSPIQDVPKKICKGPRKESQLSLGGQSCAGEPDEELVGAFPIFVRNAILGQKQPKRPRSESSCSKDVVRTGFDGLGGRTKFIQPTDTVMIRPLPVKPKTKVKQRVRVKTVPSLFQAKLDTFLWS
notes: also called TRIP; cbe_3340492
For the molecule B1, the binding result in test [1] is reported as “binds”. As for B2, the binding result (with EphB1; with GSN; in test [2]) was “binds” each time.

B3: RIL (other)
chain: MPHSVTLRGPSPWGFRLVGGRDFSAPLTISRVHAGSKAALAALCPGDLIQAINGESTELMTHLEAQNRIKGCHDHLTLSVSRPEGRSWPSAPDDSKAQAHRIHIDPEIQDGSPTTSRRPSGTGTGPEDGRPSLGSPYGQPPRFPVPHNGSSEATLPAQMSTLHVSPPPSADPARGLPRSRDCRVDLGSEVYRMLREPAEPVAAEPKQSGSFRYLQGMLEAGEGGDWPGPGGPRNLKPTASKLGAPLSGLQGLPECTRCGHGIVGTIVKARDKLYHPECFMCSDCGLNLKQRGYFFLDERLYCESHAKARVKPPEGYDVVAVYPNAKVELV
notes: also called cbe_4269628
Take B3: the binding result in test [3] is “binds”.

B4: interferon regulatory factor 1 (other)
chain: MPITRMRMRPWLEMQINSNQIPGLIWINKEEMIFQIPWKHAAKHGWDINKDACLFRSWAIHTGRYKAGEKEPDPKTWKANFRCAMNSLPDIEEVKDQSRNKGSSAVRVYRMLPPLTKNQRKERKSKSSRDAKSKAKRKSCGDSSPDTFSDGLSSSTLPDDHSSYTVPGYMQDLEVEQALTPALSPCAVSSTLPDWHIPVEVVPDSTSDLYNFQVSPMPSTSEATTDEDEEGKLPEDIMKLLEQSEWQPTNVDGKGYLLNEPGVQPTSVYGDFSCKEEPEIDSPGGDIGLSLQRVFTDLKNMDATWLDSLLTPVRLPSIQAIPCAP
notes: also called IRF1; cbe_3001381
With B4, the binding result in test [4] is given as “binds”.

B5: hypothetical protein FLJ13236 (other)
chain: MAKGLLVTYALWAVGGPAGLHHLYLGRDSHALLWMLTLGGGGLGWLWEFWKLPSFVAQANRAQGQRQSPRGVTPPLSPIRFAAQVIVGIYFGLVALISLSSMVNFYIVALPLAVGLGVLLVAAVGNQTSDFKNTLGSAFLTSPIFYGRPIAILPISVAASITAQRHRRYKALVASEPLSVRLYRLGLAYLAFTGPLAYSALCNTAATLSYVAETFGSFLNWFSFFPLLGRLMEFVLLLPYRIWRLLMGETGFNSSCFQEWAKLYEFVHSFQDEKRQLAYQVLGLSEGATNEEIHRSYQELVKVWHPDHNLDQTEEAQRHFLEIQAAYEVLSQPRKPWGSRR
notes: also called cbe_71919
For the molecule B5, the binding result in test [5] is reported as “binds”.

B6: Prey1053670 (other)
chain: MSSDERKAFLQFTTGCSTLPPGGLANLHPRLTVVRKVDATDASYPSVNTCVHYLKLPEYSSEEIMRERLLAATMEKGFHLN
notes: also called Homo sapiens, Similar to CG5604 gene product, clone MGC:11330; cbe_3606990
For B6, the binding result in test [6] is “binds”.
